In article doi:10.1101/2024.10.01.615909 (bioRxiv, 2024):

Biological target: T1, S-tag-KLCR1 (Arabidopsis thaliana, UniProt O81629 1-609)
T1 sequence: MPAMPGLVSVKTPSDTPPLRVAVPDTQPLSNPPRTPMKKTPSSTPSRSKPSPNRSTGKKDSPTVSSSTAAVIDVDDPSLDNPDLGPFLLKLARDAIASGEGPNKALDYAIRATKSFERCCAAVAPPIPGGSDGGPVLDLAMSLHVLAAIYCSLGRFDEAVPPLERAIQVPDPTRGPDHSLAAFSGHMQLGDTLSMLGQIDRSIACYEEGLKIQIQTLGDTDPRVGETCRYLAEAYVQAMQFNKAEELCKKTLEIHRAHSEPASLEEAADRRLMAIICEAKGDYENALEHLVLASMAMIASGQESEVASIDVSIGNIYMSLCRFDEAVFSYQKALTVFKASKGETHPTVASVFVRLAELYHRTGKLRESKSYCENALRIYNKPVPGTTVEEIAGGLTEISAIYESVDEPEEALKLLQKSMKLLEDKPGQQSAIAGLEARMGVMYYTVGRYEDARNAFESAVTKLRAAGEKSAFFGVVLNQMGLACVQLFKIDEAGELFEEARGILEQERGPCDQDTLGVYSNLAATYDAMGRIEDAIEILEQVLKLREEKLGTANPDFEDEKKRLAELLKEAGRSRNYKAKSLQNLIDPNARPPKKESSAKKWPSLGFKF
Test: co-sedimentation

B1: His8-SUMO (HS)-IQD2 (natural protein)
chain: MGKKAKWFSSVKKAFSPDSKKSKQKLAEGQNGVISNPPVVDNVRQSSSSPPPALAPREVRVAEVIVERNRDLSPPSTADAVNVTATDVPVVPSSSAPGVVRRATPTRFAGKSNEEAAAILIQTIFRGYLARRALRAMRGLVRLKLLMEGSVVKRQAANTLKCMQTLSRVQSQIRARRIRMSEENQARQKQLLQKHAKELAGLKNGDNWNDSIQSKEKVEANLLSKYEATMRRERALAYSYSHQQNWKNNSKSGNPMFMDPSNPTWGWSWLERWMAGRPLESSEKEQSNSNNDNAASVKGSINRNEAAKSLTRNGSTQPNTPSSARGTPRNKNSFFSPPTPSRLNQSSRKSNDDDSKSTISVLSERNRRHSIAGSSVRDDESLAGSPALPSYMVPTKSARARLKPQSPLGGTTQENEGFTDKASAKKRLSYPTSPALPKPRRFSAPPKVESGGVTVTNGAGS
- binding result: binds
